Measurements: the DeepSol protein solubility set

test: soluble on expression in E. coli; label from the status in PepcDB or PDB records

Sequence | soluble on expression in E. coli
RELLMMTPSKELCQVVGNDVLEIEKVSDHQLKLAGITKVGQELRVNIDLHVDDDMIELDTLEQTRKQLTTRLSKHRFKLQLNLNVANC | not soluble
MDQGPINRPHFFFTTAPMPCPYLEGHLERKMVTDLTGPEAERLHESLSRAGFRRSHTIAYAPVCPGCTACVPVRIRARAFVKNKSFRRIVRANAGVTAEYVPARATVEQFHLFSQYQQARHGESDMALMGFFDYRSMVEDSPISTSIAEFREAGGELVAACLIDHLSDGLSAVYSFFNTTLPQSRGLGTWMILWMVDETVRRDLDHVYLGYWIAESSKMAYKERFQPLEVFGRRGWIAFDERGRPGLEHHHHHH | not soluble
AHHHHHHGSVKIGVIGLQGDVSEHIEATKRALERLGIEGSVIWVKRPEQLNQIDGVIIPGGESTTISRLMQRTGLFDPLKKMIEDGLPAMGTCAGLIMLAKEVIGATPEQKFLEVLDVKVNRNAYGRQVDSFEAPVKLAFDDKPFIGVFIRAPRIVELLSDKVKPLAWLEDRVVGVEQGNVIGLEFHPELTDDTRIHEYFLKKIV | soluble
MEEYEFLVRVREAGGFDIEHLMDTKPSSCVIGCREFDNNDDYNAHIVLFARMGIHKYNMIQGTNLQLSCVEKYNYRSPRVYSAFYITLIAKDPDACNSLVTFQTRVVEEGFNMTKLSCNIARPKPGPQENAALPRHSVDLEPVKKSELLTHDWIRLYMELAFLKAHLRSPKNPNLSKLVIVMVAIETKDNMEPPSERLKARNAFFYIKYKYHANKGRGPKRRLGHKTPDRIAIVRRTLDKNTGYLTLEFPEPIL | soluble
MSRNLHHTEEIYQSSYLNSSLIEFMPNTILPGKETVFMSSKMEQIIEEIEDYIDGCKPSPISRNKILVNREQLEELLSELRTKTPEEVKRYQKIISNKEAILADAQAKADQIIAQAQIQTNELVSEHQIMQQAYAQANEVVQIATKQAQEILDSATNEANNLRMSAMAYTDSQLKSIEDILTGSIETSKARYDSLISSLQQFEDVVAANRAELFPPEENGDEAAGAESSDNEATSDTSDDDIEITNISDSDEDAK | not soluble
MVGAYSYSEGLETLVENGTITSQSTLQQWLEAELSYGAIRLEAAVMVRAYQAATMDDMETLCYWNLWLSAARETQELRNSSWQMGRSLMQLLGKIQPEILPLANAVGNPCNYAIAFGIASAHWQINIQAALLAYLHSWATNLITAGVKLIPLGQTAGQELLLQLQPLISHATVEIMSLKDDELSCCSWGLSLASMQHETQYTRLFRSLEHHHHHH | not soluble
MVSDEDELNLLVIVVDANPIWWGKQALKESQFTLSKCIDAVMVLGNSHLFMNRSNKLAVIASHIQESRFLYPGKNGRLGDFFGDPGNPPEFNPSGSKDGKYELLTSANEVIVEEIKDLMTKSDIKGQHTETLLAGSLAKALCYIHRMNKEVKDNQEMKSRILVIKAAEDSALQYMNFMNVIFAAQKQNILIDACVLDSDSGLLQQACDITGGLYLKVPQMPSLLQYLLWVFLPDQDQRSQLILPPPVHVDYRAACFCHRNLIEIGYVCSVCLSIFCNFSPICTTCETAFKISLPPVLKAKKRN | soluble
MSLDEAWKSLEKLRGVKLLPGNKVLLKRGEVFNGELEITGQGIPEDRIYIDAYGDDERKPCIVGYDTSLYAARICNSDYITMQNLEIVNTGRQPLPYRSGLKIECMDYGVSQNIVVNNVTVRDVNGSLVKEKGGGCGIYIVNGGEKKISTFNRLTIENCHILRCTRNAMIWAAYSDRQNWHPSKHTVIRGNLIEEVPGDGIVPIGCDSTLIEYNVMRDCPDMLPDTEAAAGIWPWSCDNTLVQFNEVSGHKAPWDAQGFDSDWNCRGTVIQYNYSHDNYGGLVLVCNDGTADASFNVGNLGTIVRYNVSIGDGVRPEPTRAGMFSPAVHLAGPVKDSRITRNIIHVNRKPAADIDRTMITLDSWGGYPDSTFISGNIFYAPESSRFQLTESTHNFFEGNYYLGRFEKLPEDGKACQSAEIYQKEVLAKDENGYQGLALLMDTVEVTGVKGVFVNKEAIENFFSRLEKEGHHHHHH | not soluble
RQGELSIACLPVFSQSFLPLLLPPFLSRYPEVSLQIVPQESPLLEEWLSAQRHDLGLTETLHTPAGTERTPLLTLNEVCVLPAGHPLAAQATLTPADFQGENYISLSRTDSYRQLLDALFLEHQVKRRMVVETHSAASICAMVRAGA | not soluble
MNKNSTSNKKNSKNKKKVDKLDLILNEFKNDIKNEKGENNQNDNKLLNGAIETNNNNNNNNNNSGNNRIHFDKEEIKEIKKKIILKEHVLEEQDNSSIRLLKNWPQLEKTYQTNPPCIPIDMIYGKDGKYPVGEILEYNNYNLSGQSLVEKKEREKLSIDYYEDLRKAAECHRQVRKHMQAFIKPGKKMIDIAQETERKTKELILAEKLKCGWGFPTGCSLNHCAAHYTPNYGDETVLKYDDVCKLDFGVHVNGYIIDCAFTIAFNEKYDNLIKATQDGTNTGIKEAGIDARMCDIGEAIQEAIESYEIELNQKIYPIKAISNLRGHSINKYIIHGGKCVPIVRQKEKNEIMEEGELFAIETFASTGKGYVNHENECSHYMRNPEKQFVPIRLNSAKTLLKVINDNFDTLPFCNRWLDDLGQTRHFMALKTLIDLNIVEPYPPLCDIKNSFTSQMEHTILLRPTCKEVLSRG | not soluble
MGHHHHHHHHHHSSGHIDDDDKHMVGATVAPSSRRDFTFDLYRALASAAPSQNIFFSPVSISMSLAMLSLGAGSSTKMQILEGLGLNLQKSSEKELHRGFQQLLQELNQPRDGFQLSLGNALFTDLVVDLQDTFVSAMKTLYLADTFPTNFRDSAGAMKQINDYVAKQTKGKIVDLLKNLDSNAVVIMVNYIFFKAKWETSFNHKGTQEQDFYVTSETVVRVPMMSREDQYHYLLDRNLSCRVVGVPYQGNATALFILPSEGKMQQVENGLSEKTLRKWLKMFKKRQLELYLPKFSIEGSYQLEKVLPSLGISNVFTSHADLSGISNHSNIQVSEMVHKAVVEVDESGTRAAAATGTIFTFRSARLNSQRLVFNRPFLMFIVDNNILFLGKVNRP | soluble
MREVEPLAERLRPRSLDEVLGQPHLTGPQGLLRRMLEAGRLSSMVLFGPPGTGKTTLARLLAEGVGRPFLRLSAVEAGLKEVRQAVEEARAKGGLVLFLDEVHRFNKAQQDALLPHLESGLLTLIGATAENPAFALVPALRSRLRFFPLRPLEEADLLALLRRALEDPRGLPGTPYEEEALRVLAQAAGGDARFALNTLELAASFGRVDLKSVREALGAERFGMDREGDRFYDLVSALHKSLRGSHVDAALYYLARLLQGGADPRYLARRLIRVAVEDVGLADPLALRLAVAAKEAYEALGSPEGELALVEAAVYLALAPKSNSLYAAWKKAQEAAKAHPEAEVPLNLRNAPTGLARALGHGEGYAYYHEDKEGSFAQRYLPEGLEGLTLFEATGEGWEERVRERLKALRERFQTARRRRG | soluble
MGSSHHHHHHSSGLVPRGSHMKDTEDAFGHALMDYADGKCSYEMVETRNGKIDVTSISYYFRDHDQWPSMEREAIRYAKGRVVDVGAGAGRHSLYLQDQGFDVTALDISPLAVEVMKHRGVKNAKIASIDEVEPGWDTMILLGNNFGLMRTIDEAMAFLRRFYSESSDDARIIAETTDPLSAGFQSDKGYPGELEIRVIYREYRSEWFRYLLADRQKLREIIKDTGWKIDHFYDIADVDVYCFVLSK | soluble
MGKPTGFMEYKRETPPKKDPFERSKNWQEFTLLMPESALRQQGARCMDCGVPFCQTGTSMDGSGEIGCPVYNLIPEWNDLVYRGHWKEALERLHKTNNFPEFTGRVCPAPCEGSCTVAISDDAVAIKSMEFHIVERGFQEGWIVPNPPRSRTGKKVAVVGSGPAGLAAAAQLNKAGHWVTVFEREDRIGGLLTYGIPDVKLPYHVVERRINLLKEEGIEFRTNVEIGKDVSAKQLKDDFDAVVLCTGATKPRDVNVKGRELKGIHFAMDFLTANTKSLLNSNHQDGNYISAKGKHVVVIGGGDTGADCITTSVRHGAKSITQFDINREKSNERPDNNPWPLFPIVHTVEDGHKEAAAVYGKDPRAYQVMTTKFVGDAEGHVKEIHTISVETTVHPDGSKTRVEIPGTEKVWPADLVFLAVGFTGPEEQLVRELELETDTRSNIKAEYGKYETSLEGVFAAGDNRRGQSLVVWAIHEGREAARECDKYLMGASNLPLEHHHHHH | soluble
MSSDFPTDPYSTAQQKWLYQDHLVLPTLEKLLKYNLKDKKVLDIGCGNGLNSTTFLQWGARKVVGFDNSQEMIENCKNLHKSSEQSSFHHLNVTDFQLDEKFHVATAVFVLQYVHDKEELRKAIRLIWERKLRNGWFRLWMEDL | not soluble
AIAADKEAAFDDAVEERVINEEYKIWKKNTPFLYDLVMTHALEWPSLTAQWLPDVTRPDGKDFSIHRLVLGTHTSDEQNHLVIASVQLPNDDAQFDASHYDSEKGEFGGFGSVSGKIEIEIKINHEGEVNRARYMPQNPCIIATKTPSCDVLVFDYTKHPSKPDPSGECNPDLRLRGHQKEGYGLSWNPNLSGNLLSASDDHTICLWDISAVPKEGKVVDAKTIFTGHTAVVEDVSWHLLHESLFGSVADDQKLMIWDTRSNNTSKPSHSVDAHTAEVNCLSFNPYSEFILATGSADKTVALWDLRNLKLKLHSFESHKDEIFQVQWSPHNETILASSGTDRRLNVWDLSKIGEEQSPEDAEDGPPELLFIHGGHTAKISDFSWNPNEPWVICSVSEDNIMQVWQMAENIYNDEDTEGSVDPEGQGS | soluble
TRGHGLFRITLVERDGPVGAGIAYATREAEHLLNTRVHNMSAFPDRPDHFRQWLAAEPEGRFSTGDSFVPRGLYRRYLEEILAPWRAGAQLTCVGGECLRIEEVGRGVIAHFSDGSVRLADVAILATGHPRPDPAEDRLLQDPWRAADVPPDARVVLLGSGLTMIDKVLTLLANGHRGEI | not soluble
MSLNERVMMINANGVPIALYNRGHLGSGHFGAVIKASLDDGTLYAAKVPYSQIVPNADATSAELEAEISSARAELVKTIRQELDVRDKLVAKGLTLTETAEQYGLPLCQMTLTLPENKATVVRRGSRLVVVSKEVMLLPLIDGSPSNSLVQSQPPFLFQRAVAREAIIALAKLHELGFAHGDVKLNNMMIDVHGFGHMLDMGSVRPVDSCVSEEDKYYLRLWAPELAKSQHTSQQTCLKRGALDVWALGLAIFEFVCFNRLPYSLSNLPSSLWSRVEHLSRLRLSDFSAKDCNESDPAVMGIVAQFLNPNPEERPELPKFVSSYTFFRQAPGVTSHLTRIPTTELSSHREGHHHHHH | soluble
REFAPPPNLPDPKFESKAALLAARGPEELLCFTERLEDLVCFWEEAASAGVGPGQYSFSYQLEDEPWKLCRLHQAPTARGAVRFWCSLPTADTSSFVPLELRVTAASGAPRYHRVIHINEVVLLDAPVGLVARLADESGHVVLRWLPPPETPMTSHIRYEVDVSAGQGAGSVQRVEILEGRTECVLSNLRGRTRYTFAVRARMAEPSFGGFWSEWSEPVSLLTPSDLD | soluble
MGHHHHHHSHMGNNSESKGSASDSKGAETFTYKAENGNVKIPKHPKRVVVMADGYYGYFKTLGINVVGAPENVFKNPYYKGKTNGVENIGDGTSVEKVIDLNPDLIIVWTTQGADIKKLEKIAPTVAVKYDKLDNIEQLKEFAKMTGTEDKAEKWLAKWDKKVAAAKTKIKKAVGDKTISIMQTNGKDIYVFGKDFGRGGSIIYKDLGLQATKLTKEKAIDQGPGYTSISLEKLPDFAGDYIFAGPWQSGGDDGGVFESSIWKNLNAVKNGHVYKMDPIGFYFTDPISLEGQLEFITESLTK | soluble
MGSDKIHHHHHHMKNLYAKVIVGGSPISKSNFKLSNINGRAILPYNSGQYHDRYAIYEETIAYEARSQNPNTVISESIIAVLKVFYKSKKRHPDTNNITKSIFDGIEKSGIIVNDAQITRIIIEEYYDMINPRFELELFAESKFKMKYSILKKEEEDEPILYDPPSNKKRLITKTQKPKKSAQNGTITCSICGKKVTNDNIIWANKGTTALCKNCLKKSF | not soluble
